This is an account of results in paper PMC11579972 (Small (Weinheim an Der Bergstrasse, Germany), 2024).

Series [1] deals with T1, An‐FD, Pro‐Asp‐(Phe‐Asp)5‐Pro.
T1 chain: PDFDFDFDFDFDP
Nature of the series: other fluorescence titration.

Series [2] addresses T2, An‐FD, Pro‐Asp‐(Phe‐Asp)5‐Pro.
T2 peptide: PDFDFDFDFDFDP
Nature of the series: ITC. Background: ITC needs no label: the signal is the heat of the interaction.

The target in series [3] is T3, Sc‐FD (a scrambled version of An‐FD).
T3 peptide: DFFPDDPFDFFDD
Nature of the series: ITC.

The target in series [4] is T2, An‐FD, Pro‐Asp‐(Phe‐Asp)5‐Pro. The experiment in a line: MST.

Usually Kd stands for the constant that tells how readily two partners part at equilibrium. Low readings indicate higher affinity, high ones lower affinity. By stoichiometry N is commonly meant a count of units in the complex or per binding partner. On to PKFKFKFKFKFKP [Cat‐FK, Pro‐Lys‐(Phe‐Lys)5‐Pro], for which, in series [1], the “critical coassembly concentration (CCC) at 25% An-FD” value was 0.096, 0.058, and 0.14 mM; the “critical coassembly concentration (CCC) at 50% An-FD” value was 0.096, 0.058, and 0.14 mM; the “critical coassembly concentration (CCC) at 75% An-FD” value is 0.096, 0.058, and 0.14 mM. Moreover, in series [2], the Kd is around 40 µM, the dH was -8.37 kcal/mol and the “stoichiometry N” value amounted to 1.12. The molecule also had a dH in series [3] of 1.43 ± 2.87 kcal/mol. This molecule also had a Kd in series [4] of 50 ± 8 µM.
